In assay [1] the target is NapD with an N-terminal hexa His-tag (NapD^NHis) (Escherichia coli) (UniProt P0A9I5). Put plainly: AUC; sedimentation equilibrium, 4 °C, about 100 kDa complex (fraction 80 of SEC), 0.5 to 1.0 mg/mL, interference and absorbance optics at 260, 280 and 300 nm.
For assay [2] the target is unchanged. Put plainly: SAXS; purified NapD^NHis/NapA complex, P12 BioSAXS beamline (PETRA III), 7 °C.

What is called stoichiometry N is the number of molecules, sites or subunits per partner or assembly.

Sequence of UniProt P0A9I5 (P0A9I5 whole entry): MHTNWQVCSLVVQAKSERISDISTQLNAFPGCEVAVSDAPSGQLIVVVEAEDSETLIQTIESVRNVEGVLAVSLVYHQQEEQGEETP

In the case of “full-length NapA precursor protein (from UniProt P33937 37-828) (natural protein)”, the stoichiometry N in assay [1] and in assay [2] was 1 each time.

The values above are taken from publication PMC4159696.
